Laboratory results from US20030211537A1.
Changes are numbered by the printed parent chain. Non-standard residues stand in square brackets, D forms with d. No end group written: not given here.

Legend:
[1] = biological target: cloned human µ opioid receptor (human), P35372; assay: saturation binding, Scatchard analysis, COS-7 membranes
[2] = biological target: T1, rat µ opioid receptor (rat), P33535; assay: saturation binding, COS-7 membranes
T1 chain: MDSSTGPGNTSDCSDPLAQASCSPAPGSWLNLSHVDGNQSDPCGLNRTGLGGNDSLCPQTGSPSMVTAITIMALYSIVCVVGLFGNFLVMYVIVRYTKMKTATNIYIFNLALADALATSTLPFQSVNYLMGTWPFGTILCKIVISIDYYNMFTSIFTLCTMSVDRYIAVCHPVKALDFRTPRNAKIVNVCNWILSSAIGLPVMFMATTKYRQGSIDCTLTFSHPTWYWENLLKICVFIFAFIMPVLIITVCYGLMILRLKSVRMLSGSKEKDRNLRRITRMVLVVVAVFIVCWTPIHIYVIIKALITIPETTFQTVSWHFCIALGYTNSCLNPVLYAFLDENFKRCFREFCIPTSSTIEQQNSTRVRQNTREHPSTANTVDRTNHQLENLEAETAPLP

[3] = biological target: T1, rat µ opioid receptor (rat), P33535; assay: competition vs [3H]DAMGO, COS-7 membranes
[4] = biological target: T2, mouse delta opioid receptor (mORD1) (mouse), P32300; assay: cell-based or functional assay
T2 chain: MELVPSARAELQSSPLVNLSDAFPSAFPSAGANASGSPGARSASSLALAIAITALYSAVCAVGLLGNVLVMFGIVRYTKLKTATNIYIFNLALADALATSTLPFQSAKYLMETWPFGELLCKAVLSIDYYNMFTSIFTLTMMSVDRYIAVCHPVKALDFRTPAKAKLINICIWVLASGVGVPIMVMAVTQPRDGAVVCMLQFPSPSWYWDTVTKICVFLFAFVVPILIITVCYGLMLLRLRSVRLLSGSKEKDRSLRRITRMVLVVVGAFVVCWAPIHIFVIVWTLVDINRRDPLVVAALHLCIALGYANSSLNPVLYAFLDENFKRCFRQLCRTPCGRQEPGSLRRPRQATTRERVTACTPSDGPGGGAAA

[5] = biological target: T3, D128N mutant mouse delta opioid receptor (mouse), P32300; assay: cell-based or functional assay
T3 chain: T2 chain with D128N

[6] = biological target: T4, κ1-78/δ70-372 chimeric opioid receptor (mouse); assay: competition vs [3H]DPDPE, COS-7 membranes
T4 chain: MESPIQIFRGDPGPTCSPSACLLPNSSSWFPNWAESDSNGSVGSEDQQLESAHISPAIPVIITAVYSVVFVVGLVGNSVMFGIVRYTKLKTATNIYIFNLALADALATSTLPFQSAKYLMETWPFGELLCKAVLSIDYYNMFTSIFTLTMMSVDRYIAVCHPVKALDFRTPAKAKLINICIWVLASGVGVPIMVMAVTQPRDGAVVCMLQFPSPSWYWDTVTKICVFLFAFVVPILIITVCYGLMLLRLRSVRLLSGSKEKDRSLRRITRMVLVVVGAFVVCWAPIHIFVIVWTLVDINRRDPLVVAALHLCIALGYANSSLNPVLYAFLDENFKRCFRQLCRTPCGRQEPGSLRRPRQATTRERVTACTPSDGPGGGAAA

[7] = biological target: T5, H278N mutant mouse delta opioid receptor (mouse), P32300; assay: competition vs 3H-naltrindole, COS-7 membranes
T5 chain: T2 chain with H278N

[8] = biological target: T2, mouse delta opioid receptor (mORD1) …; assay: competition vs [3H]naltrindole, COS-1 membranes
[9] = biological target: T2, mouse delta opioid receptor (mORD1) …; assay: competition vs [3H]naltrindole, CHO-DG44 membranes
[10] = biological target: T2, mouse delta opioid receptor (mORD1) …; assay: radioligand binding, COS-7 membranes

Chain of cloned human µ opioid receptor (human), P35372 (P35372 whole entry): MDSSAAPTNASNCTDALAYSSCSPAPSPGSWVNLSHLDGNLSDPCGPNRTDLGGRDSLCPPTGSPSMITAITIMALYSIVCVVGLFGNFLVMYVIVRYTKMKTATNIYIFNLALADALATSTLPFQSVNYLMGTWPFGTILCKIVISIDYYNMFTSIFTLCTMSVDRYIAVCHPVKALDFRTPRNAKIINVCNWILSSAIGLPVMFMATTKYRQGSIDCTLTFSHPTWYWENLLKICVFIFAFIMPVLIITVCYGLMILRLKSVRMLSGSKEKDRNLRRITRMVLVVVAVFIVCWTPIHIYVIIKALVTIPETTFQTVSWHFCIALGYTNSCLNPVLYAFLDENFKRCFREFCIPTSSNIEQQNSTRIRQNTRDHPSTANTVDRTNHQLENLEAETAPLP

Binder YAGFG (modifications not checked) [[D-Ala2,MePhe4,Gly-ol5]enkephalin (DAMGO)] has a Kd [1] of 1 nM, a Kd [2] of 0.57 nM and a Ki [3] of 2 nM.

Y[dS]GFLT [[D-Ser2, Leu5] enkephalin-Thr6 (DSLET)] gave an inhibition of forskolin-stimulated cAMP formation [4] of 70%, an EC50 to inhibit forskolin-stimulated cAMP accumulation [5] of 30 nM and an IC50 [6] of 2 nM. It also gave a Ki [7] of 0.5 nM.

Binder YAGFL (modifications not checked) [DADL] has a Ki [3] of 16 nM, an IC50 [8] of 20 nM and a Ki [9] of 0.74 nM.

YCGFC (modifications not checked) [[D-Pen2, D-Pen5]enkephalin (DPDPE)] was tested, and the average binding (fmol/mg protein) [10] was 1990.
